Molecular target: AphC, extradiol dioxygenase from Rhodococcus jostii RHA1 (Rhodococcus jostii RHA1)
Assay: crystal structure

stoichiometry N: 4
Substance: AphC, extradiol dioxygenase from Rhodococcus jostii RHA1 (enzyme)

Reference: paper PMC9062432
